Measured values from FireProtDB (doi:10.1021/bi990285w).
Where “and” joins values, the source holds several entries; their conditions need not be identical. Identical values can stand only once.

Conditions: Bacillus amyloliquefaciens; pH 8; 22 °C; GdnHCl; Fluorescence; phosphate 20 mM; whole UniProt chain shown

B1: Barstar wild type, P11540 (protein)
chain: MKKAVINGEQIRSISDLHQTLKKELALPEYYGENLDALWDCLTGWVEYPLVLEWRQFEQSKQLTENGAESVLQVFREAKAEGCDITIILS
**Q.** For B1, which denaturant m value is on record?
**A.** 2.5 kcal/mol/M and 1.45 kcal/mol/M and 2.2 kcal/mol/M

**Q.** What about the unfolding free energy of the same protein?
**A.** 5.1 kcal/mol and 2.1 kcal/mol and 5.6 kcal/mol
